Several values for one entry are separate records, joined by “and”; a condition that tells them apart may be missing. Equal values may be shown once.
B1: Gamma-crystallin D, P07320 (parent)
chain: MGKITLYEDRGFQGRHYECSSDHPNLQPYLSRCNSARVDSGCWMLYEQPNYSGLQYFLRRGDYADHQQWMGLSDSVRSCRLIPHSGSHRIRLYEREDYRGQMIEFTEDCSCLQDRFRFNEIHSLNVLEGSWVLYELSNYRGRQYLLMPGDYRRYQDWGATNARVGSLRRVIDFS

Variants of: B1
Details: Homo sapiens; pH 7; 37 °C; GdnHCl; Fluorescence; Sodium phosphate 10 mM; transition: 3; structure 1HK0; whole UniProt chain shown

M44A
denaturant m value: 3.7 kcal/mol/M and 2.8 kcal/mol/M | denaturant midpoint (higher = more stable): 2.2 M and 2.9 M | unfolding free energy: 7.7 kcal/mol and 8.1 kcal/mol

L145A
ddG of mutation (higher = less stable): 1.2 kcal/mol and 1.4 kcal/mol | denaturant m value: 3.9 kcal/mol/M and 2.9 kcal/mol/M | denaturant midpoint (higher = more stable): 1.6 M and 2.6 M | unfolding free energy: 6.5 kcal/mol and 7.5 kcal/mol

I82A
denaturant m value: 3.7 kcal/mol/M and 3 kcal/mol/M | denaturant midpoint (higher = more stable): 1.5 M and 2.9 M | unfolding free energy: 5.3 kcal/mol and 8.7 kcal/mol

F57A
denaturant m value: 3.9 kcal/mol/M and 3.2 kcal/mol/M | denaturant midpoint (higher = more stable): 1.6 M and 2.9 M | unfolding free energy: 6.1 kcal/mol and 9.3 kcal/mol

V170A
ddG of mutation (higher = less stable): -1.3 kcal/mol | denaturant m value: 4 kcal/mol/M | denaturant midpoint (higher = more stable): 2.5 M | unfolding free energy: 10.2 kcal/mol

V132A
ddG of mutation (higher = less stable): 2.7 kcal/mol and 1.1 kcal/mol | denaturant m value: 3.7 kcal/mol/M and 3.1 kcal/mol/M | denaturant midpoint (higher = more stable): 1.3 M and 2.5 M | unfolding free energy: 5 kcal/mol and 7.8 kcal/mol
